Experimental findings from article PMC11417369, “DNA sequence and chromatin differentiate sequence-specific transcription factor binding in the human malaria parasite Plasmodium falciparum” are described below.

The data set deals with T1, SIP2 D1 (Plasmodium falciparum, UniProt C6KSN9 177-235).
T1 sequence: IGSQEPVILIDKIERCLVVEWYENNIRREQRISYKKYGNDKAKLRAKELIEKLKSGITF
Description: gcPBM; about 25 ug protein; PBS, 1% milk, 0.2 mg/ml BSA, salmon testes DNA, 0.03% Triton X-100. The following applies: tags: N-terminal GST (pGEX-4T-1), kept; label: surface-attached array probe.

B1: GTGCAC_site9754 (dsDNA)
DNA 1: ATATAATATTTTAGAGTGCACCGATAACAATAAATA
DNA 2: TATTTATTGTTATCGGTGCACTCTAAAATATTATAT
Consider B1, for which the binding signal is 11.4 ln median PBM intensity, better of two orientations.

B2: GTGCAC_site10385 (dsDNA)
DNA 1: GTGGTTGTAATGGTGGTGCATATTGTATATTATGTT
DNA 2: AACATAATATACAATATGCACCACCATTACAACCAC
On to B2, for which the binding signal is 10.7 ln median PBM intensity, better of two orientations.

B3: GTGCAC_site10559 (dsDNA)
DNA 1: TAAATATTTTTATGGGTGCGTTCTTTAGCGCAATTT
DNA 2: AAATTGCGCTAAAGAACGCACCCATAAAAATATTTA
As to B3, the binding signal was 10.4 ln median PBM intensity, better of two orientations.

B4: GTGCAC_site9733 (dsDNA)
DNA 1: TAAAAATTAAAAAGGGTGCAAAAAAAAAAAAAAAAA
DNA 2: TTTTTTTTTTTTTTTTTGCACCCTTTTTAATTTTTA
With B4, the binding signal was 11.6 ln median PBM intensity, better of two orientations.

B5: GTGCAC_site9862 (dsDNA)
DNA 1: ACACATACACATTAGGTGCACATAATTCAATATTAC
DNA 2: GTAATATTGAATTATGTGCACCTAATGTGTATGTGT
As for B5, the binding signal was 11.3 ln median PBM intensity, better of two orientations.

B6: GTGCAC_site10429 (dsDNA)
DNA 1: TATAAGTGCTCAACGGTGCATTTATAGAAGTTAAAC
DNA 2: GTTTAACTTCTATAAATGCACCGTTGAGCACTTATA
Turning to B6, the binding signal was 10.8 ln median PBM intensity, better of two orientations.

B7: GTGCAC_site9660 (dsDNA)
DNA 1: CTTTTTTTTTTGGGGGTGCATGCAAGACATATATTT
DNA 2: AAATATATGTCTTGCATGCACCCCCAAAAAAAAAAG
As to B7, the binding signal was 11.5 ln median PBM intensity, better of two orientations.

B8: GTGCAC_site10454 (dsDNA)
DNA 1: TTTTTAATATATTAGGTGCACAATAATACACTTTAT
DNA 2: ATAAAGTGTATTATTGTGCACCTAATATATTAAAAA
With B8, the binding signal was 11.3 ln median PBM intensity, better of two orientations.

B9: GTGCAC_site10759 (dsDNA)
DNA 1: ATTAAATTTCCTTGAGTGCACATTTTGTTAAAATAT
DNA 2: ATATTTTAACAAAATGTGCACTCAAGGAAATTTAAT
Regarding B9, the binding signal is 10.7 ln median PBM intensity, better of two orientations.

B10: GTGCAC_site10679 (dsDNA)
DNA 1: AGCATATTATTTTAGGTGCACTTGAAATGTGTTAAC
DNA 2: GTTAACACATTTCAAGTGCACCTAAAATAATATGCT
Consider B10, for which the binding signal was 11.5 ln median PBM intensity, better of two orientations.

B11: GTGCAC_site10198 (dsDNA)
DNA 1: TTTTTAACGTATAAGGTGCACTGTATATGGTACTCA
DNA 2: TGAGTACCATATACAGTGCACCTTATACGTTAAAAA
B11: the binding signal was 11.5 ln median PBM intensity, better of two orientations.

B12: GTGCAC_site10403 (dsDNA)
DNA 1: CTGTAAAATGTGATGGTGCATATTAATTTAGTTGTA
DNA 2: TACAACTAAATTAATATGCACCATCACATTTTACAG
With B12, the binding signal was 10.8 ln median PBM intensity, better of two orientations.

B13: GTGCAC_site10066 (dsDNA)
DNA 1: TAAACATATAGAGGGGTGCAAAGAATTGTAAAATTT
DNA 2: AAATTTTACAATTCTTTGCACCCCTCTATATGTTTA
For the molecule B13, the binding signal was 10.8 ln median PBM intensity, better of two orientations.

B14: GTGCAC_site10519 (dsDNA)
DNA 1: CATGCCTTTAAAAAGGTGCAAACATTTTCACAAACA
DNA 2: TGTTTGTGAAAATGTTTGCACCTTTTTAAAGGCATG
In the case of B14, the binding signal was 11.4 ln median PBM intensity, better of two orientations.

B15: GTGCAC_site10740 (dsDNA)
DNA 1: AAAAATTAACAAAAGGTGCAATTTATTTATTAACGG
DNA 2: CCGTTAATAAATAAATTGCACCTTTTGTTAATTTTT
Turning to B15, the binding signal is 10.9 ln median PBM intensity, better of two orientations.

B16: GTGCAC_site10641 (dsDNA)
DNA 1: ATATAATAACAAAAGGTGCGCATTAAGACAAAAAAA
DNA 2: TTTTTTTGTCTTAATGCGCACCTTTTGTTATTATAT
On to B16, for which the binding signal was 11.5 ln median PBM intensity, better of two orientations.

B17: GTGCAC_site10082 (dsDNA)
DNA 1: ATAATAACTTGTAAGGTGCATTTTATGTTTTCTTAA
DNA 2: TTAAGAAAACATAAAATGCACCTTACAAGTTATTAT
Consider B17, for which the binding signal was 10.8 ln median PBM intensity, better of two orientations.

B18: GTGCAC_site10577 (dsDNA)
DNA 1: TTTTTTTTCTATGTGGTGCACATTATTTTTTTTTTT
DNA 2: AAAAAAAAAAATAATGTGCACCACATAGAAAAAAAA
Take B18: the binding signal was 11.4 ln median PBM intensity, better of two orientations.

B19: GTGCAC_site10505 (dsDNA)
DNA 1: ATTATTACTTTTTGAGTGCACATACACACAGACATA
DNA 2: TATGTCTGTGTGTATGTGCACTCAAAAAGTAATAAT
With B19, the binding signal was 10.6 ln median PBM intensity, better of two orientations.

B20: GTGCAC_site9937 (dsDNA)
DNA 1: TTTCACATATATATGGTGCATATTTTATGTGTAAAT
DNA 2: ATTTACACATAAAATATGCACCATATATATGTGAAA
In the case of B20, the binding signal was 10.5 ln median PBM intensity, better of two orientations.

B21: GTGCAC_site10688 (dsDNA)
DNA 1: AGTGACACCAAAGGGGTGCAATGAAATTAAAAATAT
DNA 2: ATATTTTTAATTTCATTGCACCCCTTTGGTGTCACT
B21: the binding signal was 10.6 ln median PBM intensity, better of two orientations.

B22: GTGCAC_site10518 (dsDNA)
DNA 1: ATATATTTCAAAGGGGTGCAGGCATATTTAAGCAAA
DNA 2: TTTGCTTAAATATGCCTGCACCCCTTTGAAATATAT
Take B22: the binding signal was 11.6 ln median PBM intensity, better of two orientations.

B23: GTGCAC_site9760 (dsDNA)
DNA 1: ATAATTATTCTTATGGTGCACTGAATATACATGTTG
DNA 2: CAACATGTATATTCAGTGCACCATAAGAATAATTAT
B23: the binding signal is 11 ln median PBM intensity, better of two orientations.

B24: GTGCAC_site10448 (dsDNA)
DNA 1: TATTAATTTAAATGGGTGCAAAACCTATATAAATAT
DNA 2: ATATTTATATAGGTTTTGCACCCATTTAAATTAATA
For B24, the binding signal was 11.1 ln median PBM intensity, better of two orientations.

B25: GTGCAC_site10015 (dsDNA)
DNA 1: TATAATGGTTCTGGTGTGCACCATGACAGAATCAAG
DNA 2: CTTGATTCTGTCATGGTGCACACCAGAACCATTATA
Regarding B25, the binding signal was 11.4 ln median PBM intensity, better of two orientations.

B26: GTGCAC_site10039 (dsDNA)
DNA 1: CAGTAGTTTTTATGGGTGCAAAACATATATATAACA
DNA 2: TGTTATATATATGTTTTGCACCCATAAAAACTACTG
As to B26, the binding signal is 11.3 ln median PBM intensity, better of two orientations.

B27: GTGCAC_site9525 (dsDNA)
DNA 1: CTGCGTTTAATATGCGTGCACCTTGGTTTTATATCT
DNA 2: AGATATAAAACCAAGGTGCACGCATATTAAACGCAG
As to B27, the binding signal was 11.3 ln median PBM intensity, better of two orientations.

B28: GTGCAC_site9853 (dsDNA)
DNA 1: ACTATTTAATATAGGGTGCAACTTTTTCAAGTAAAT
DNA 2: ATTTACTTGAAAAAGTTGCACCCTATATTAAATAGT
As for B28, the binding signal was 11.5 ln median PBM intensity, better of two orientations.

B29: GTGCAC_site10397 (dsDNA)
DNA 1: ATATATAATAAACAGGTGCATTGTTTTATTTTGTAT
DNA 2: ATACAAAATAAAACAATGCACCTGTTTATTATATAT
With B29, the binding signal is 10.5 ln median PBM intensity, better of two orientations.

B30: GTGCAC_site9600 (dsDNA)
DNA 1: AACCTTACACAAGGGGTGCAATATTATTTCGATAAA
DNA 2: TTTATCGAAATAATATTGCACCCCTTGTGTAAGGTT
As to B30, the binding signal was 11.5 ln median PBM intensity, better of two orientations.

B31: GTGCAC_site10200 (dsDNA)
DNA 1: CTCATTTTTGTACAGGTGCACTTATCGTTACACTAT
DNA 2: ATAGTGTAACGATAAGTGCACCTGTACAAAAATGAG
As for B31, the binding signal is 11.5 ln median PBM intensity, better of two orientations.

B32: GTGCAC_site9532 (dsDNA)
DNA 1: ATATATATATTAAAGGTGCACAAATAAATATATACA
DNA 2: TGTATATATTTATTTGTGCACCTTTAATATATATAT
In the case of B32, the binding signal is 11.3 ln median PBM intensity, better of two orientations.

B33: GTGCAC_site9650 (dsDNA)
DNA 1: CAATTTGGTGTACAGGTGCACATGCCTCACGATAAA
DNA 2: TTTATCGTGAGGCATGTGCACCTGTACACCAAATTG
On to B33, for which the binding signal was 11.3 ln median PBM intensity, better of two orientations.

B34: GTGCAC_site10727 (dsDNA)
DNA 1: ATAGAAGGCAACTTGGTGCACAAAAAAAAAAATAAT
DNA 2: ATTATTTTTTTTTTTGTGCACCAAGTTGCCTTCTAT
B34: the binding signal was 11.4 ln median PBM intensity, better of two orientations.

B35: GTGCAC_site10547 (dsDNA)
DNA 1: CGTTGGTATTAAAAGGTGCAATGAAATAATATATTA
DNA 2: TAATATATTATTTCATTGCACCTTTTAATACCAACG
Turning to B35, the binding signal is 10.7 ln median PBM intensity, better of two orientations.

B36: GTGCAC_site10141 (dsDNA)
DNA 1: ACCCATTTTAATTTAGTGCACATTTTACCTTTATAC
DNA 2: GTATAAAGGTAAAATGTGCACTAAATTAAAATGGGT
For the molecule B36, the binding signal is 10.5 ln median PBM intensity, better of two orientations.

B37: GTGCAC_site9950 (dsDNA)
DNA 1: AAAAAAAAAAAAATGGTGCAACTTTGTTAAAGGAAA
DNA 2: TTTCCTTTAACAAAGTTGCACCATTTTTTTTTTTTT
Consider B37, for which the binding signal was 11.6 ln median PBM intensity, better of two orientations.

B38: GTGCAC_site10197 (dsDNA)
DNA 1: TCCATATGCAAACTGGTGCACAAGTAGCTTTTATAT
DNA 2: ATATAAAAGCTACTTGTGCACCAGTTTGCATATGGA
With B38, the binding signal is 11 ln median PBM intensity, better of two orientations.

B39: GTGCAC_site10328 (dsDNA)
DNA 1: AAATTCTGCATCGAGGTGCGCCATAAAAATTGTGGT
DNA 2: ACCACAATTTTTATGGCGCACCTCGATGCAGAATTT
Consider B39, for which the binding signal is 10.9 ln median PBM intensity, better of two orientations.

B40: GTGCAC_site9720 (dsDNA)
DNA 1: TATATTAAAAAAGAGGTGCATTCGTAAGAGGTTAAA
DNA 2: TTTAACCTCTTACGAATGCACCTCTTTTTTAATATA
Take B40: the binding signal is 10.6 ln median PBM intensity, better of two orientations.

B41: GTGCAC_site10674 (dsDNA)
DNA 1: AAAAAAAAAAAAAAGGTGCAAATAAATTAACCTTAT
DNA 2: ATAAGGTTAATTTATTTGCACCTTTTTTTTTTTTTT
With B41, the binding signal was 11.4 ln median PBM intensity, better of two orientations.
